# Assay results: paper PMC7067828, “FAM111A protects replication forks from protein obstacles via its trypsin-like domain”
# Legend:
# [1] = target: Strep-FAM111A (human, UniProt Q96PZ2 1-611); assay: fluorescence polarization; EMSA: 25 mM Tris-HCl pH 7.5, 5 mM MgCl2, 10% glycerol, 20 ng/ul BSA, 1 mM DTT, 0.7 pmol DNA in 10 ul, on ice 1 h; FP: 10 mM HEPES-NaOH pH 7.5, 150 mM NaCl, 10 nM DNA; details: protein: recombinant; tags: N-terminal tandem Strep; label: 5' 6-FAM; single strand
# [2] = target: MBP-FAM111A 1-282 (human, UniProt Q96PZ2 1-282); assay: EMSA; 5 mM Mg2+; EMSA: 25 mM Tris-HCl pH 7.5, 5 mM MgCl2, 10% glycerol, 20 ng/ul BSA, 1 mM DTT, 0.7 pmol DNA in 10 ul, on ice 1 h; FP: 10 mM HEPES-NaOH pH 7.5, 150 mM NaCl, 10 nM DNA; details: protein: recombinant; tags: N-terminal MBP; label: 5' IRDye700; single strand
# Sequence of MBP-FAM111A 1-282 (Q96PZ2 1-282): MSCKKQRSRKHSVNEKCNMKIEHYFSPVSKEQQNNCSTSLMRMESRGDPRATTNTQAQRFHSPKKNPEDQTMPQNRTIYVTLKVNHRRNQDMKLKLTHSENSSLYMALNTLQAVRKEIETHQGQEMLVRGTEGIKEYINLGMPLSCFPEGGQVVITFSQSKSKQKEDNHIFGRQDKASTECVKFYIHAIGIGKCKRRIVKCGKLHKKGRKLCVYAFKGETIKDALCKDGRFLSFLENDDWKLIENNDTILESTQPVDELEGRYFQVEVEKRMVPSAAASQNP
# [3] = target: T1, GST-FAM111A-strep (human, UniProt Q96PZ2 1-611); assay: as above; details: protein: recombinant, tags: N-terminal GST, C-terminal tandem Strep
# T1 sequence (Q96PZ2 whole entry): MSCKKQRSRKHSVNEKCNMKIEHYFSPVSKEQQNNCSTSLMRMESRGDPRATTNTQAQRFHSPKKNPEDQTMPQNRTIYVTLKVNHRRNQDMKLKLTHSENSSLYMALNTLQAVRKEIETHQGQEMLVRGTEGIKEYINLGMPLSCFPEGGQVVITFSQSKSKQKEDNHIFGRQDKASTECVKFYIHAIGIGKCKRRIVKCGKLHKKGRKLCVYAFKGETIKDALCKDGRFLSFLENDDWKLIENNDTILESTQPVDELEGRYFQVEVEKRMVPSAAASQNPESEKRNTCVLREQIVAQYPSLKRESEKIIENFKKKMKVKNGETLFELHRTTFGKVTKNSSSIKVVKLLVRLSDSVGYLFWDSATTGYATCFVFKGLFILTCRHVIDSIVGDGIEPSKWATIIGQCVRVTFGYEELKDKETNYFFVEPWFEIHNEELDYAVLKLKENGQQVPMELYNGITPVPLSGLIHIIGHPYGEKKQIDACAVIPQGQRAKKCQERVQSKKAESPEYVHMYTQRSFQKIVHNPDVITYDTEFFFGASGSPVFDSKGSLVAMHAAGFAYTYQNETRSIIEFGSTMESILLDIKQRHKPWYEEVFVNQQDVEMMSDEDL
# [4] = target: MBP-FAM111A 176-282 (human, UniProt Q96PZ2 176-282); assay: as above; details: protein: recombinant; tags: N-terminal MBP; label: 5' IRDye700; single strand
# Sequence of MBP-FAM111A 176-282 (Q96PZ2 176-282): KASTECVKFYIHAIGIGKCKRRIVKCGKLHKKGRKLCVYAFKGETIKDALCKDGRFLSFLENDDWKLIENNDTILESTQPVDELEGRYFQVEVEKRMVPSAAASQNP
# [5] = target: T1, GST-FAM111A-strep; assay: EMSA; 5 mM Mg2+; up to 450 nM protein; EMSA: 25 mM Tris-HCl pH 7.5, 5 mM MgCl2, 10% glycerol, 20 ng/ul BSA, 1 mM DTT, 0.7 pmol DNA in 10 ul, on ice 1 h; FP: 10 mM HEPES-NaOH pH 7.5, 150 mM NaCl, 10 nM DNA; details: protein: recombinant; tags: N-terminal GST, C-terminal tandem Strep; label: 5' IRDye700 on strand 1; fork 1:2 1:3 2:4; both arms double-stranded
# Sequence of Strep-FAM111A (Q96PZ2 whole entry): as the sequence (Q96PZ2 whole entry) above
binder,measurement,setting,value
CGACGATGCTCCGGTACTCCAGTGTAGGCAT (ssDNA) [6-FAM-O1676 (31 nt)],Kd,[1],~60 nM
ssDNA O3063 (75 nt) (ssDNA) DNA: GTTTTCCCAGTCACGACGATGCTCCGGTACTCCAGTGTAGGCATATTACGAATTCTTGAGGCAGGCATGGTAGCT,binding result,[2],binds
same,binding result,"[3]; label: 5' IRDye700, single strand",binds
same,binding result,[4],binds
dsY fork O3063/O4787/O3730/O3757 (dsDNA) DNA 1: GTTTTCCCAGTCACGACGATGCTCCGGTACTCCAGTGTAGGCATATTACGAATTCTTGAGGCAGGCATGGTAGCT DNA 2: AGCTACCATGCCTGCCTCAAGAATTCGTAATATGCCTACACTGGACCGTACTTCGCCTAGTAGACTGCCTTCCCG DNA 3: GTACCGGAGCATCGTCGTGACTGGGAAAAC DNA 4: CGGGAAGGCAGTCTACTAGGCGAAGTACGG,binding result,[5],no binding
Y fork O3063/O4787 (mixed) DNA 1: GTTTTCCCAGTCACGACGATGCTCCGGTACTCCAGTGTAGGCATATTACGAATTCTTGAGGCAGGCATGGTAGCT DNA 2: AGCTACCATGCCTGCCTCAAGAATTCGTAATATGCCTACACTGGACCGTACTTCGCCTAGTAGACTGCCTTCCCG,binding result,"[3]; label: 5' IRDye700 on strand 1, fork 1:2, 45 bp duplex, two 30-nt ss arms",binds
